Reference: patent US20180273621A1

Key:
[1] = molecular target: Human FcγRIIIA (V158), recombinantly expressed extracellular domain (human) (UniProt P08637); experiment: BIAcore 3000, IgG immobilized, FcγR extracellular domain injected, equilibrium fit to a 1:1 binding isotherm
[2] = molecular target: Mouse FcγRIIB, recombinantly expressed extracellular domain (mouse) (UniProt P08101); experiment: as above
[3] = molecular target: Human FcγRIIA, recombinantly expressed extracellular domain (human) (UniProt P12318); experiment: as above
[4] = molecular target: Mouse FcγRIV, recombinantly expressed extracellular domain (mouse); experiment: as above
[5] = molecular target: Mouse FcγRIII, recombinantly expressed extracellular domain (mouse) (UniProt P08508); experiment: as above
[6] = molecular target: Human FcγRIIB, recombinantly expressed extracellular domain (human) (UniProt P31994); experiment: as above
[7] = molecular target: Human FcγRI, recombinantly expressed extracellular domain (human) (UniProt P12314); experiment: BIAcore 3000, IgG immobilized, FcγR extracellular domain injected, equilibrium fit to a 1:1 binding isotherm; Fc variant 16C4-235F
[8] = molecular target: Human FcγRI, recombinantly expressed extracellular domain (human) (UniProt P12314); experiment: BIAcore 3000, IgG immobilized, FcγR extracellular domain injected, equilibrium fit to a 1:1 binding isotherm; Fc variant 16C4-235Y
[9] = molecular target: Human FcγRI, recombinantly expressed extracellular domain (human) (UniProt P12314); experiment: BIAcore 3000, IgG immobilized, FcγR extracellular domain injected, equilibrium fit to a 1:1 binding isotherm; 16C4, parent Fc (no Fc substitution)

Chain of Mouse FcγRIIB, recombinantly expressed extracellular domain (mouse) (P08101 30-210): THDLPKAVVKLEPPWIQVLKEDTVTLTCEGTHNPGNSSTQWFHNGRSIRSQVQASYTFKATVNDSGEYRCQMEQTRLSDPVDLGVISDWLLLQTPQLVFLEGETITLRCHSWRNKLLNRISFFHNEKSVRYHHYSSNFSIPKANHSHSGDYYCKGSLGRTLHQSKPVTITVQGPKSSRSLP
Chain of Mouse FcγRIII, recombinantly expressed extracellular domain (mouse) (P08508 31-215): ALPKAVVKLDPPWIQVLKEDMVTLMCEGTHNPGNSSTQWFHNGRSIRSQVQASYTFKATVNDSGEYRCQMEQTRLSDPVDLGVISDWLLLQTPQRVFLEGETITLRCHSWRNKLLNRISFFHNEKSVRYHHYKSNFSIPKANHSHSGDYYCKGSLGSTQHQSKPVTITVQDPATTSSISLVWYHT
Chain of Human FcγRIIB, recombinantly expressed extracellular domain (human) (P31994 43-217): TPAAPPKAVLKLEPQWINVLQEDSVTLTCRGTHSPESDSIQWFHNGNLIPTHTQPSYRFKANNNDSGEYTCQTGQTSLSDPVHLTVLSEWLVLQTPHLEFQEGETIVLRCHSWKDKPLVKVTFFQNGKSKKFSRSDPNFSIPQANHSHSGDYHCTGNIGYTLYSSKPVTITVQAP
Chain of Human FcγRIIIA (V158), recombinantly expressed extracellular domain (human) (P08637 17-208 F176V): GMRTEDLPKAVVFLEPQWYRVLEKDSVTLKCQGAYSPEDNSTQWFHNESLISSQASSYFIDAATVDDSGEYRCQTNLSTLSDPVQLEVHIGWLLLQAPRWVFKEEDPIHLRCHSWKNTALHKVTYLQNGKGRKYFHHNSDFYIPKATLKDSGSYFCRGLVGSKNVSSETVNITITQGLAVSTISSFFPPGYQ
Chain of Human FcγRI, recombinantly expressed extracellular domain (human) (P12314 16-292): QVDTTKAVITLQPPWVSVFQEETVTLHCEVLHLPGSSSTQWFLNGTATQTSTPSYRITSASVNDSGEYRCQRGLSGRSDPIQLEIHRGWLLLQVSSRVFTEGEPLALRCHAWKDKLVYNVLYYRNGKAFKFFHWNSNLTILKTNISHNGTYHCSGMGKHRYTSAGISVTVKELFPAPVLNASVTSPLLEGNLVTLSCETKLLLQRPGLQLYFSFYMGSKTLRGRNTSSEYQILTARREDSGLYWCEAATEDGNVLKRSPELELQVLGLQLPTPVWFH
Chain of Mouse FcγRIV, recombinantly expressed extracellular domain (mouse) (A0A0B4 entry or part of it limits assumed): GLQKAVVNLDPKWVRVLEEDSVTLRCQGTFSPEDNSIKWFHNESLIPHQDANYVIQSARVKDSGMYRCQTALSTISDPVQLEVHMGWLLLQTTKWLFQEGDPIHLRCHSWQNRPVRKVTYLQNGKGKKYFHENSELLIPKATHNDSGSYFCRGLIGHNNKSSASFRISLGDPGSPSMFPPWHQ
Chain of Human FcγRIIA, recombinantly expressed extracellular domain (human) (P12318 34-217): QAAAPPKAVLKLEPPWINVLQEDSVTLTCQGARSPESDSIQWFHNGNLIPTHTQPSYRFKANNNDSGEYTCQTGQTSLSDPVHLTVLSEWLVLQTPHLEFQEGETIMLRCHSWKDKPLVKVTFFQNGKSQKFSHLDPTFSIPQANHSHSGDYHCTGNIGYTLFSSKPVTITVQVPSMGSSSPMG

Row | Kd [1] | Kd [2] | Kd [3] | Kd [4] | Kd [5] | Kd [6] | Kd [7] | Kd [8] | Kd [9] | Substance
1 | 4.61 µM | 2.82 µM | 6.36 µM | 11.1 µM | 10.9 µM | 6.81 µM | 1.53 µM |  |  | 16C4 Fc variant antibody comprising the L234F/L235F/P331S amino acid substitutions
2 | 5.14 µM | 2.67 µM | 6.98 µM |  | 9.24 µM | 17.1 µM |  | 8.65 µM |  | 16C4 Fc variant antibody comprising the L234F/L235Y/P331S amino acid substitutions
3 | 0.574 µM | 1.47 µM |  | 0.329 µM | 6.36 µM | 14.5 µM |  |  | 0.019 µM | 16C4 affinity matured anti-CD19 IgG antibody
